T1: human amylin receptor (human, UniProt P30988 25-474; O60896 24-148, limits assumed)
T1 construct: whole, on cells; Calcitonin receptor plus RAMP-3 gives the amylin 3(a) receptor; membranes of Amylin 3(a)/CRE-luc cells were used; also called hAmylin-R; hAmylinR
T1 sequence (looked up) 1: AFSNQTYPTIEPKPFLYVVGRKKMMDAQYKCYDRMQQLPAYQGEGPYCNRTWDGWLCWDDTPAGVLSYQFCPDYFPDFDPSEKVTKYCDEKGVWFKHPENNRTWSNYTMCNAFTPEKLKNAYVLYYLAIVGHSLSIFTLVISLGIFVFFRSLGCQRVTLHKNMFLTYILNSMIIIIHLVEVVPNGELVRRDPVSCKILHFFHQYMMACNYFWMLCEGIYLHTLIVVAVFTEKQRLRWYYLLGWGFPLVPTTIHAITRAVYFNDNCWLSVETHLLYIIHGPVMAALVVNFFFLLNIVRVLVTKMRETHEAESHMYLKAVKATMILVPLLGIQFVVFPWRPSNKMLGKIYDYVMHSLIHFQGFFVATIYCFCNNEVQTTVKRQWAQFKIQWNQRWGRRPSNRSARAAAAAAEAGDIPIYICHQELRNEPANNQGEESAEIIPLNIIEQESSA
T1 sequence (looked up) 2: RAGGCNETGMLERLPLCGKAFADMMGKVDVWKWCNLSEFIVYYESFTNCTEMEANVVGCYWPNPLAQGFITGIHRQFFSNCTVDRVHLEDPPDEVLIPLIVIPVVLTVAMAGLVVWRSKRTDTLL

B1: N^ε-[2-[2-[2-[[(4S)-4-carboxy-4-(19-carboxynonadecanoylamino)butanoyl]amino]ethoxy]ethoxy]acetyl]Lys[Arg1,Arg17,Pro21,Pro27,His35]-h-amylin (peptide)
peptide: K([AEEA-γGlu-C20 diacid])RCNTATCATQRLANFLRHSSPNFGAIPSSTNVGSHTY-NH2
modifications: disulfide 3-8; N-terminus assumed
SMILES: CC[C@H](C)[C@H](NC(=O)[C@H](C)NC(=O)CNC(=O)[C@H](Cc1ccccc1)NC(=O)[C@H](CC(N)=O)NC(=O)[C@@H]1CCCN1C(=O)[C@H](CO)NC(=O)[C@H](CO)NC(=O)[C@H](Cc1c[nH]cn1)NC(=O)[C@H](CCCNC(=N)N)NC(=O)[C@H](CC(C)C)NC(=O)[C@H](Cc1ccccc1)NC(=O)[C@H](CC(N)=O)NC(=O)[C@H](C)NC(=O)[C@H](CC(C)C)NC(=O)[C@H](CCCNC(=N)N)NC(=O)[C@H](CCC(N)=O)NC(=O)[C@@H](NC(=O)[C@H](C)NC(=O)[C@@H]1CSSC[C@H](NC(=O)[C@H](CCCNC(=N)N)NC(=O)[C@@H](N)CCCCNC(=O)COCCOCCNC(=O)CC[C@H](NC(=O)CCCCCCCCCCCCCCCCCCC(=O)O)C(=O)O)C(=O)N[C@@H](CC(N)=O)C(=O)N[C@@H]([C@@H](C)O)C(=O)N[C@@H](C)C(=O)N[C@@H]([C@@H](C)O)C(=O)N1)[C@@H](C)O)C(=O)N1CCC[C@H]1C(=O)N[C@@H](CO)C(=O)N[C@@H](CO)C(=O)N[C@H](C(=O)N[C@@H](CC(N)=O)C(=O)N[C@H](C(=O)NCC(=O)N[C@@H](CO)C(=O)N[C@@H](Cc1c[nH]cn1)C(=O)N[C@H](C(=O)N[C@@H](Cc1ccc(O)cc1)C(N)=O)[C@@H](C)O)C(C)C)[C@@H](C)O
notes: also called -1K, 1R, 17R, 21P, 27P, 35H
B2: N{-1}-[(4S)-4-carboxy-4-(19-carboxynonadecanoylamino)butanoyl]-Gly[Arg1,His14,Arg17,Pro21,Pro27]-h-amylin (peptide)
peptide: {C20 diacid-γGlu}-GRCNTATCATQRLAHFLRHSSPNFGAIPSSTNVGSNTY-NH2
modifications: disulfide 3-8
SMILES: CC[C@H](C)[C@H](NC(=O)[C@H](C)NC(=O)CNC(=O)[C@H](Cc1ccccc1)NC(=O)[C@H](CC(N)=O)NC(=O)[C@@H]1CCCN1C(=O)[C@H](CO)NC(=O)[C@H](CO)NC(=O)[C@H](Cc1c[nH]cn1)NC(=O)[C@H](CCCNC(=N)N)NC(=O)[C@H](CC(C)C)NC(=O)[C@H](Cc1ccccc1)NC(=O)[C@H](Cc1c[nH]cn1)NC(=O)[C@H](C)NC(=O)[C@H](CC(C)C)NC(=O)[C@H](CCCNC(=N)N)NC(=O)[C@H](CCC(N)=O)NC(=O)[C@@H](NC(=O)[C@H](C)NC(=O)[C@@H]1CSSC[C@H](NC(=O)[C@H](CCCNC(=N)N)NC(=O)CNC(=O)CC[C@H](NC(=O)CCCCCCCCCCCCCCCCCCC(=O)O)C(=O)O)C(=O)N[C@@H](CC(N)=O)C(=O)N[C@@H]([C@@H](C)O)C(=O)N[C@@H](C)C(=O)N[C@@H]([C@@H](C)O)C(=O)N1)[C@@H](C)O)C(=O)N1CCC[C@H]1C(=O)N[C@@H](CO)C(=O)N[C@@H](CO)C(=O)N[C@H](C(=O)N[C@@H](CC(N)=O)C(=O)N[C@H](C(=O)NCC(=O)N[C@@H](CO)C(=O)N[C@@H](CC(N)=O)C(=O)N[C@H](C(=O)N[C@@H](Cc1ccc(O)cc1)C(N)=O)[C@@H](C)O)C(C)C)[C@@H](C)O
notes: also called -1G, 1R, 14H, 17R, 21P, 27P
B3: N^ε-[(4S)-4-carboxy-4-(19-carboxynonadecanoylamino)butanoyl]Lys[Arg1,Arg17,Pro21,Pro27,His35]-h-amylin (peptide)
peptide: K([γGlu-C20 diacid])RCNTATCATQRLANFLRHSSPNFGAIPSSTNVGSHTY-NH2
modifications: disulfide 3-8; N-terminus assumed
SMILES: CC[C@H](C)[C@H](NC(=O)[C@H](C)NC(=O)CNC(=O)[C@H](Cc1ccccc1)NC(=O)[C@H](CC(N)=O)NC(=O)[C@@H]1CCCN1C(=O)[C@H](CO)NC(=O)[C@H](CO)NC(=O)[C@H](Cc1c[nH]cn1)NC(=O)[C@H](CCCNC(=N)N)NC(=O)[C@H](CC(C)C)NC(=O)[C@H](Cc1ccccc1)NC(=O)[C@H](CC(N)=O)NC(=O)[C@H](C)NC(=O)[C@H](CC(C)C)NC(=O)[C@H](CCCNC(=N)N)NC(=O)[C@H](CCC(N)=O)NC(=O)[C@@H](NC(=O)[C@H](C)NC(=O)[C@@H]1CSSC[C@H](NC(=O)[C@H](CCCNC(=N)N)NC(=O)[C@@H](N)CCCCNC(=O)CC[C@H](NC(=O)CCCCCCCCCCCCCCCCCCC(=O)O)C(=O)O)C(=O)N[C@@H](CC(N)=O)C(=O)N[C@@H]([C@@H](C)O)C(=O)N[C@@H](C)C(=O)N[C@@H]([C@@H](C)O)C(=O)N1)[C@@H](C)O)C(=O)N1CCC[C@H]1C(=O)N[C@@H](CO)C(=O)N[C@@H](CO)C(=O)N[C@H](C(=O)N[C@@H](CC(N)=O)C(=O)N[C@H](C(=O)NCC(=O)N[C@@H](CO)C(=O)N[C@@H](Cc1c[nH]cn1)C(=O)N[C@H](C(=O)N[C@@H](Cc1ccc(O)cc1)C(N)=O)[C@@H](C)O)C(C)C)[C@@H](C)O
notes: as for B1
B4: N^ε1-[(4S)-4-carboxy-4-(19-carboxynonadecanoylamino)butanoyl]-[Arg17,Pro21,Pro27]-h-amylin (peptide)
peptide: K([γGlu-C20 diacid])CNTATCATQRLANFLRHSSPNFGAIPSSTNVGSNTY-NH2
modifications: disulfide 2-7; N-terminus assumed
SMILES: CC[C@H](C)[C@H](NC(=O)[C@H](C)NC(=O)CNC(=O)[C@H](Cc1ccccc1)NC(=O)[C@H](CC(N)=O)NC(=O)[C@@H]1CCCN1C(=O)[C@H](CO)NC(=O)[C@H](CO)NC(=O)[C@H](Cc1c[nH]cn1)NC(=O)[C@H](CCCNC(=N)N)NC(=O)[C@H](CC(C)C)NC(=O)[C@H](Cc1ccccc1)NC(=O)[C@H](CC(N)=O)NC(=O)[C@H](C)NC(=O)[C@H](CC(C)C)NC(=O)[C@H](CCCNC(=N)N)NC(=O)[C@H](CCC(N)=O)NC(=O)[C@@H](NC(=O)[C@H](C)NC(=O)[C@@H]1CSSC[C@H](NC(=O)[C@@H](N)CCCCNC(=O)CC[C@H](NC(=O)CCCCCCCCCCCCCCCCCCC(=O)O)C(=O)O)C(=O)N[C@@H](CC(N)=O)C(=O)N[C@@H]([C@@H](C)O)C(=O)N[C@@H](C)C(=O)N[C@@H]([C@@H](C)O)C(=O)N1)[C@@H](C)O)C(=O)N1CCC[C@H]1C(=O)N[C@@H](CO)C(=O)N[C@@H](CO)C(=O)N[C@H](C(=O)N[C@@H](CC(N)=O)C(=O)N[C@H](C(=O)NCC(=O)N[C@@H](CO)C(=O)N[C@@H](CC(N)=O)C(=O)N[C@H](C(=O)N[C@@H](Cc1ccc(O)cc1)C(N)=O)[C@@H](C)O)C(C)C)[C@@H](C)O
notes: also called 17R, 21P, 27P

Data on four molecules can be found in patent publication US20140087995A1 (published 2014).

Numbered stars: 1 amine (or outer) side, 2 acyl side, 3 side chain; on linkers, the order of the positions; unused ones are H or OH. Bridge positions count the residues as written; N and C are the ends. Side chains are listed from the residue outwards. Ends that are not written are not given here. * marks the point of attachment. C20 diacid = O=C(O)CCCCCCCCCCCCCCCCCCC(=O)*; γGlu = O=C(O)[C@H](CCC(=O)[*:2])N[*:1]; AEEA = NCCOCCOCC(=O)O

In the experiment the target is T1, human amylin receptor. Description: SPA competition binding, displacement of 125I-rat amylin from membranes with human amylin 3(a) receptor (Assay V). Summed up: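 SPA beads + BHK amylin 3(a)/CRE-luc membranes, 35 ng/μL final; buffer 50 mM Hepes pH 7.4, 1 mM CaCl2, 5 mM MgCl₂, 0.1% OA, 0.02% Tween20. 120 min, 25° C, shaken; scintillation count. IC₅₀ by one-site binding competition fit, taken as receptor affinity.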
(In a radioligand displacement assay an active substance lowers the binding of a labelled ligand.)
As for B1, the half-maximal inhibitory concentration (IC50) was found to be 0.552 nM.

For the molecule B2, the IC50 is 0.348 nM. Regarding B3, the IC50 came out at 0.275 nM. For B4 the value was 0.443 nM.

The IC50 is the concentration that inhibits the measured activity by half.
